Assay results as given in paper PMC9482650, “Quantitative fragmentomics allow affinity mapping of interactomes” (Nature Communications, 2022).

T1: GRIP1_7, Q9Y3R0
T1 sequence (Q9Y3R0 999-1096, limits assumed, looked up): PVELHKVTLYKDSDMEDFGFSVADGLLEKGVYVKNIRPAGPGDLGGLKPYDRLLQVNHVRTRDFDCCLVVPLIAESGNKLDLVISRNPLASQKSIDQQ

T2: PTPN13_1, Q12923
T2 sequence (Q12923 1088-1188, limits assumed, looked up): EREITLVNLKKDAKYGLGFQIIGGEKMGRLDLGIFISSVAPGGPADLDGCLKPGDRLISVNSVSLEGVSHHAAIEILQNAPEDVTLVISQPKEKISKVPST

T3: PCLO, Q9Y6V0
T3 sequence (Q9Y6V0 4491-4600, limits assumed, looked up): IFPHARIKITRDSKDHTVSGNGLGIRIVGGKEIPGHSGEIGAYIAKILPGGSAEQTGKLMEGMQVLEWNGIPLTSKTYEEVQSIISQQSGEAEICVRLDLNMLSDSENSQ

T4: PDZRN3_1, Q9UPQ7
T4 sequence (Q9UPQ7 244-349, limits assumed, looked up): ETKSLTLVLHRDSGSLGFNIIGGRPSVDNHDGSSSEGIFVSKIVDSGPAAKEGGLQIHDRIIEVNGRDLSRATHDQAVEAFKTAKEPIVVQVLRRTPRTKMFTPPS

T5: MPP6, Q9NZW5
T5 sequence (Q9NZW5 125-219, limits assumed, looked up): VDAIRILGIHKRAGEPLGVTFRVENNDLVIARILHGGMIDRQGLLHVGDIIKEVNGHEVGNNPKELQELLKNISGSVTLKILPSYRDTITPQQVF

T6: ARHGAP21, Q5T5U3
T6 sequence (Q5T5U3 45-169, limits assumed, looked up): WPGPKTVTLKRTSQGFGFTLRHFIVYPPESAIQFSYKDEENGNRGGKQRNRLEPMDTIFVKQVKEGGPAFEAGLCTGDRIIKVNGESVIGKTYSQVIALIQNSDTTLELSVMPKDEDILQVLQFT

T7: SYNJ2BP, P57105
T7 sequence (P57105 8-110, limits assumed, looked up): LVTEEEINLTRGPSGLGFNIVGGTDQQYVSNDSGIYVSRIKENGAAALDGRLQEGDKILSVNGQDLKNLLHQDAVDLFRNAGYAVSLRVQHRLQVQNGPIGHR

T8: FRMPD1, Q5SYB0
T8 sequence (Q5SYB0 52-145, limits assumed, looked up): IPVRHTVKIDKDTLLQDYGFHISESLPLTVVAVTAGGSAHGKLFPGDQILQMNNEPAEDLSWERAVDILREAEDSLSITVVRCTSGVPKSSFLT

T9: MPP7, Q5T2T1
T9 sequence (Q5T2T1 134-230, limits assumed, looked up): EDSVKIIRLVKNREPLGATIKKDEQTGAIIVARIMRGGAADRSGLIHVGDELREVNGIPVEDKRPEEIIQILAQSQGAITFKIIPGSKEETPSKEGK

T10: LIN7A, O14910
T10 sequence (O14910 103-200, limits assumed, looked up): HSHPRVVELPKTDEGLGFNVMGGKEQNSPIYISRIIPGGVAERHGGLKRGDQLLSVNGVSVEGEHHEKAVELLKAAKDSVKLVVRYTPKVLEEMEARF

T11: GRIP1_5, Q9Y3R0
T11 sequence (Q9Y3R0 568-668, limits assumed, looked up): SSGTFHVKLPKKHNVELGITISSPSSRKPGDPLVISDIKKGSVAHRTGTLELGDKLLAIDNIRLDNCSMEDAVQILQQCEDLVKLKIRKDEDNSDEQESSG


Assays:
Test in all cases: holdup assay
Set-up in all cases: key: below the threshold = too weak to quantify, mostly under pKd 3.1 to 4
Settings in all cases: plain residues with an end cap or a label only (N-terminal biotin on a linker: ado-ado)
GRIP1_7, Q9Y3R0 = target: T1, GRIP1_7, Q9Y3R0
MAGI2_3, Q86UL8 = target: MAGI2_3, Q86UL8
GRIP2_6, Q9C0E4 = target: GRIP2_6, Q9C0E4
SCRIB_2, Q14160 = target: SCRIB_2, Q14160
MAST2, Q6P0Q8 = target: MAST2, Q6P0Q8
PTPN13_1, Q12923 = target: T2, PTPN13_1, Q12923
PCLO, Q9Y6V0 = target: T3, PCLO, Q9Y6V0
Inadl_4, Q8NI35 = target: Inadl_4, Q8NI35
MAGI2_5, Q86UL8 = target: MAGI2_5, Q86UL8
Inadl_3, Q8NI35 = target: Inadl_3, Q8NI35
HTRA1, Q92743 = target: HTRA1, Q92743
PDZRN3_1, Q9UPQ7 = target: T4, PDZRN3_1, Q9UPQ7
NHERF4_2, Q86UT5 = target: NHERF4_2, Q86UT5
MPP6, Q9NZW5 = target: T5, MPP6, Q9NZW5
ARHGAP21, Q5T5U3 = target: T6, ARHGAP21, Q5T5U3
SYNJ2BP, P57105 = target: T7, SYNJ2BP, P57105
FRMPD4, Q14CM0 = target: FRMPD4, Q14CM0
GRIP2_3, Q9C0E4 = target: GRIP2_3, Q9C0E4
MAGI1_1, Q96QZ7 = target: MAGI1_1, Q96QZ7
FRMPD1, Q5SYB0 = target: T8, FRMPD1, Q5SYB0
GRID2IP_1, A4D2P6 = target: GRID2IP_1, A4D2P6
MPP7, Q5T2T1 = target: T9, MPP7, Q5T2T1
LIN7A, O14910 = target: T10, LIN7A, O14910
GRIP1_5, Q9Y3R0 = target: T11, GRIP1_5, Q9Y3R0
GRASP, Q7Z6J2 = target: GRASP, Q7Z6J2
DLG4_1, P78352 = target: DLG4_1, P78352
MAGI1_2, Q96QZ7 = target: MAGI1_2, Q96QZ7
MAGI1_2, Q96QZ7, sequence (Q96QZ7 456-580): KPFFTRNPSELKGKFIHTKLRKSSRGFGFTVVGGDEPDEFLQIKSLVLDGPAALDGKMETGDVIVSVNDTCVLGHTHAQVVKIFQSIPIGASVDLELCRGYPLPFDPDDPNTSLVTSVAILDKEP

HTRA1, Q92743, sequence (Q92743 360-477): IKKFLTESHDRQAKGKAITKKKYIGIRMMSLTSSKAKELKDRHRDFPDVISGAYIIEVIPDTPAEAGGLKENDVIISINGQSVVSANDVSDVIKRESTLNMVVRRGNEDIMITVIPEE
NHERF4_2, Q86UT5, sequence (Q86UT5 220-308): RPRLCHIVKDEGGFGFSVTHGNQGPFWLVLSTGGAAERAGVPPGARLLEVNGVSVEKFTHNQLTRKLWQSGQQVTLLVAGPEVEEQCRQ
DLG4_1, P78352, sequence (P78352 62-152): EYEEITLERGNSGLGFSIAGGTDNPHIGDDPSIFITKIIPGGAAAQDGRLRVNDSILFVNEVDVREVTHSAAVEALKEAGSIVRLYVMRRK
GRIP2_3, Q9C0E4, sequence (Q9C0E4 238-339): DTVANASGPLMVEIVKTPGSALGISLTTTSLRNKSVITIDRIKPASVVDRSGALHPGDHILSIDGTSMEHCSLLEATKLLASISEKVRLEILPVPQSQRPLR
FRMPD4, Q14CM0, sequence (Q14CM0 67-160): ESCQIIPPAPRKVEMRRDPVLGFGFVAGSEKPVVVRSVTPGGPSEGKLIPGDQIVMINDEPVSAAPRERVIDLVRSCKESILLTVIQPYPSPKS
GRID2IP_1, A4D2P6, sequence (A4D2P6 1-87): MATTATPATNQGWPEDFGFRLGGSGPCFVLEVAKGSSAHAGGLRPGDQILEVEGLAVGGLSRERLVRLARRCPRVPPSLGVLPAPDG
GRIP2_6, Q9C0E4, sequence (Q9C0E4 648-740): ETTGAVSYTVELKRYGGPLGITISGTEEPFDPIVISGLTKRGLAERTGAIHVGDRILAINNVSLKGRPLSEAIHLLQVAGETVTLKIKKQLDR
MAGI2_5, Q86UL8, sequence (Q86UL8 915-1017): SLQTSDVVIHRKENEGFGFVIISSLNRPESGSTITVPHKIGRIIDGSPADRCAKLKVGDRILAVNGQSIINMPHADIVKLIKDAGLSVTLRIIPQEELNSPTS
Inadl_4, Q8NI35, sequence (Q8NI35 547-651): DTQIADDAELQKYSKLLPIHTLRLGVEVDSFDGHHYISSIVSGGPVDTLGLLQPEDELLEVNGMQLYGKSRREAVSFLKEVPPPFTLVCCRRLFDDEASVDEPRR
Inadl_3, Q8NI35, sequence (Q8NI35 359-469): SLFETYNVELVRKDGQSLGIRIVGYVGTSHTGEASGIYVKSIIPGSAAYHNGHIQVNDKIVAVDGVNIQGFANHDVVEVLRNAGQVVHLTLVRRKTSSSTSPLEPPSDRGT
MAGI1_1, Q96QZ7, sequence (Q96QZ7 1-106): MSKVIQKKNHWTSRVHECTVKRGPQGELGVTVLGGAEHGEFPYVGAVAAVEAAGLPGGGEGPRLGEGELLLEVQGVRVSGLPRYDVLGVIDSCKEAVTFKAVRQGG
MAST2, Q6P0Q8, sequence (Q6P0Q8 1099-1202): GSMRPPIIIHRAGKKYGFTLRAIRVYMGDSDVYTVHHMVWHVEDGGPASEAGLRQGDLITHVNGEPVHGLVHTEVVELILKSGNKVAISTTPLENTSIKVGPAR
SCRIB_2, Q14160, sequence (Q14160 857-960): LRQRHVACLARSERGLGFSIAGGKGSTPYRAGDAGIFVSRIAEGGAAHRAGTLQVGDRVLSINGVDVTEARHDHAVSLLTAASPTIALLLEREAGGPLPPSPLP
GRASP, Q7Z6J2, sequence (Q7Z6J2 96-193): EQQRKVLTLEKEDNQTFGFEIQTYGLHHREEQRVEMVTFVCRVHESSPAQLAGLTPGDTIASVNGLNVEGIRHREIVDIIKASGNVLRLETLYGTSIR
MAGI2_3, Q86UL8, sequence (Q86UL8 600-682): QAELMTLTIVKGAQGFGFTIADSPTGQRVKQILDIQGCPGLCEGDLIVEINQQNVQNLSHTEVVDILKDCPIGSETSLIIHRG

Row | pKd (GRIP1_7, Q9Y3R0) | pKd (MAGI2_3, Q86UL8) | pKd (GRIP2_6, Q9C0E4) | pKd (SCRIB_2, Q14160) | pKd (MAST2, Q6P0Q8) | pKd (PTPN13_1, Q12923) | pKd (PCLO, Q9Y6V0) | pKd (Inadl_4, Q8NI35) | pKd (MAGI2_5, Q86UL8) | pKd (Inadl_3, Q8NI35) | pKd (HTRA1, Q92743) | pKd (PDZRN3_1, Q9UPQ7) | pKd (NHERF4_2, Q86UT5) | pKd (MPP6, Q9NZW5) | pKd (ARHGAP21, Q5T5U3) | pKd (SYNJ2BP, P57105) | pKd (FRMPD4, Q14CM0) | pKd (GRIP2_3, Q9C0E4) | pKd (MAGI1_1, Q96QZ7) | pKd (FRMPD1, Q5SYB0) | Binder | further results
1 | below the threshold | 3.5 | below the threshold | 4.43 | 5.64 | below the threshold | below the threshold | below the threshold | 4.22 | 3.59 | 3.86 | 5.2 | below the threshold | below the threshold | 4.17 | 5.1 | 4.51 | below the threshold | below the threshold | below the threshold | RHGSCVETSL [TMEM151B, Q8IW70] | pKd (GRID2IP_1, A4D2P6): below the threshold; pKd (MPP7, Q5T2T1): below the threshold; pKd (LIN7A, O14910): 4.04; pKd (GRIP1_5, Q9Y3R0): below the threshold; pKd (GRASP, Q7Z6J2): 4.21; pKd (DLG4_1, P78352): 3.98; pKd (MAGI1_2, Q96QZ7): 3.76
2 | below the threshold | 3.61 | below the threshold | below the threshold | 4.77 | below the threshold | below the threshold | below the threshold | 4.3 | below the threshold | below the threshold | below the threshold | below the threshold | below the threshold | below the threshold | below the threshold | below the threshold | below the threshold | below the threshold | below the threshold | GNSVLKSTQF [SLC22A12, Q96S37] | pKd (GRID2IP_1, A4D2P6): below the threshold; pKd (MPP7, Q5T2T1): below the threshold; pKd (LIN7A, O14910): below the threshold; pKd (GRIP1_5, Q9Y3R0): below the threshold; pKd (GRASP, Q7Z6J2): 4.07; pKd (DLG4_1, P78352): below the threshold; pKd (MAGI1_2, Q96QZ7): below the threshold
3 | below the threshold | 4.1 | below the threshold | below the threshold | 5.12 | below the threshold | below the threshold | below the threshold | below the threshold | below the threshold | 3.72 | 3.78 | below the threshold | below the threshold | 3.73 | 3.9 | below the threshold | below the threshold | below the threshold | below the threshold | LPHGHSTTRV [NLGN4X, Q8N0W4] | pKd (GRID2IP_1, A4D2P6): below the threshold; pKd (MPP7, Q5T2T1): below the threshold; pKd (LIN7A, O14910): below the threshold; pKd (GRIP1_5, Q9Y3R0): below the threshold; pKd (GRASP, Q7Z6J2): 4.29; pKd (DLG4_1, P78352): 3.51; pKd (MAGI1_2, Q96QZ7): 4.23
4 | below the threshold | below the threshold | below the threshold | below the threshold | 4.74 | below the threshold | below the threshold | below the threshold | below the threshold | below the threshold | 3.84 | below the threshold | below the threshold | 3.64 | 3.59 | below the threshold | 3.89 | below the threshold | below the threshold | below the threshold | VRNLPESEEL [MYOZ3, Q8TDC0] | pKd (GRID2IP_1, A4D2P6): below the threshold; pKd (MPP7, Q5T2T1): below the threshold; pKd (LIN7A, O14910): below the threshold; pKd (GRIP1_5, Q9Y3R0): below the threshold; pKd (GRASP, Q7Z6J2): 3.74; pKd (DLG4_1, P78352): below the threshold; pKd (MAGI1_2, Q96QZ7): below the threshold
5 | below the threshold | below the threshold | 4.61 | below the threshold | 4.07 | below the threshold | below the threshold | below the threshold | below the threshold | 5.17 | 5.37 | below the threshold | below the threshold | 3.9 | below the threshold | below the threshold | below the threshold | below the threshold | below the threshold | below the threshold | QSLNRMEYIV [JAG1, P78504] | pKd (GRID2IP_1, A4D2P6): below the threshold; pKd (MPP7, Q5T2T1): 3.98; pKd (LIN7A, O14910): below the threshold; pKd (GRIP1_5, Q9Y3R0): below the threshold; pKd (GRASP, Q7Z6J2): below the threshold; pKd (DLG4_1, P78352): below the threshold; pKd (MAGI1_2, Q96QZ7): below the threshold
